B1: TPR t1 (parent)
chain: GACCAAUCUGCCCUCAGAGCUCGAGAACAUCUUCGGAUGCAGAGGAGGCAGGCUUCGGUGGCGCGAUAGCGCCAACGUCCUCAACCUCCAAUGCAUCCCACCACAUGAUGAUGCCUGAAGAGCCUUGGUUUUUUG

Variants of: B1
Experiment: polymerase ribozyme fitness, log enrichment relative to wild type (log ratio); higher = more active; in vitro selection for triplet polymerase activity
Procedure, shortened: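 For each subunit of a heterodimeric triplet polymerase ribozyme, a mutant library was built by PCR and transcribed, then taken through a single in vitro selection round in triplicate. Selection involved annealing to a biotinylated primer, the partner subunit and triplets, incubation frozen at −7 °C, gel excision of extended constructs, capture on streptavidin beads and RT-PCR. Genotypes were retained after Illumina sequencing of inputs and outputs only with ≥10 input reads and ≥1 read in each output. Fitness is defined as the logarithm of a genotype's enrichment relative to wild-type enrichment, using inverse-variance-weighted averages across replicates, with the logarithm taken to base 2.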

Variant | polymerase ribozyme fitness (log ratio)
C4U U9C C34G A100U | -4.68
C4U U129A | -2.07
C4G G44C | -2.96
A5C C56A | -0.668
A5U G63U G110A | -2.89
A5G C8U A95C | -0.636
A6C C22G A43C U59A U87C A118G | -5.18
A5C C73G A84U | -2.25
C4G G45C C70A | -4.27
A5U G39C A105U | -3.56
A5C G39C C70U G113A G120A C123A | -2.68
A5U C11U U54A C89A | -2.83
C4U C13U G19U A95G | -2.99
A5G C12G G42U | -0.303
A5G C8U C72G G110A | -1.25
A5U A84G U96C G113U | -4.28
C4U C31U G61U C98G C101A C114U | -6.59
C4U C97G | -3.97
A5G U109G | -4.99
A5C C8U C34A A75U C79U C101G | -3.24
A5G U33A C124U | -3.02
A5U U9C C31U G39A G120U | -3.67
A5C G69A U129A | -4.05
A5G G77U G113U G122C | -3.27

Variant | polymerase ribozyme fitness (log ratio)
C4G G45A C114U | -4.45
C4U C8A C28U U59A | -2.29
A5G A118U C123G | 2.09
A6C C8U C89U | -0.206
C4U G42C G60U C88G C99G A111U U134A | -5.4
A5U U14G U59A C62U | -2.15
C4U G60C A83U A84C C86A | -2.24
A5C C64U | -0.365
C4G G71A | -1.72
C4U C56A | -0.607
A5G C11A U81C | -1.86
C4G C97A | -5.92
A5C U7G U54A C72U G110C | -4.62
C4U U9A C82A | 0.0858
C4G U38A A95U G127C | -0.148
A5U U54C G60A U112C | 1.52
A5G C79A C115G U125G U131A | -1.22
A5U A18U | -2.62
A5U A18G | -2.05
C4U U7C A43U C62G | -4.93
A6C C11A C85U U112G | -2.47
A6C C12G G52A G63U U106A | -2.76
A5G U9C C40U C56U U59A | -0.739
A5U C15G C72G A119G A121U | 0.915

Variant | polymerase ribozyme fitness (log ratio)
A5G C15U C70U C101U C124U | -0.0911
A5C G69U C72U C79A U92A | -3.86
A5U C34G | -6.92
C4G U9C A43G G47A C70U | -4.92
C4G G63U | -1.88
A5U G71U | -0.497
C4U G35C C72U G117C C123U U125A | -6.14
A5U C72A | -0.164
A5G A43G C56U C80U | -2.61
A5C C8G A37U U38C A43C G57A G110A C124U | -5.51
A6C A24G A26G U87G U112C A121G | -0.944
A5U C56G C114U | -4.21
A5U G10A A37U U55G | -0.809
A5C G35U C56U G63A C70U U109A G117C U125G U130A | -6.63
C4U C98U G113U | -3.82
A5G G47U A50C C62U A105C | -6.17
C4U G19A G71A G120C | -3.53
C4G U9C C15A U55C C73A C79G | -2.6
C4U C11U C104U C115A | -2.94
A5G C49G G127C G128A | -2.99
A5G G63U | -0.893
A5G G63C | -0.273
C4U C8G U33G C85G C94U | -6
A5U G47A G113U | -3.72

Variant | polymerase ribozyme fitness (log ratio)
A5C G61A | -0.269
C4U | -0.513
A5U A95C G120C | 0.108
A5U G44C C73U | -1.65
A5U C40U G48A | -2.13
C4U G120C | -0.0314
A5C A37U G127U | -2.11
C4U U38G | -1.16
A5U A6U A46C C104U C123A | 0.565
A5C C11G G44A C56A U112A | -0.571
A6C A26U C62U | -2.91
A5C C64U G77U G110A | -3.72
A5G C53U G71A G113A | -2.7
C4U A43C U125A | -3.11
C4U G10U G51U C79G | -3.58
A5G G63A U67G U96A C123U | -5.12
C4U G57A G61A | -0.861
A5C A46U A83C C86G C114A G117A | -6.85
A5U G61A | -0.0027
A5G C13G A37G | -1.28
A5C C89U | -0.689
A5G U9G C12A U78C G93A | -0.124
A5U U112A A118U U125C | 0.369
A5U A18G C20G C82U C94U A111C U112G A121C | -6.26

Variant | polymerase ribozyme fitness (log ratio)
A5C G42U G61C U78G C80A A84U C104G G113C A119U U125C U133A | -7.58
A5U C53U C64U U106A | -0.639
A5U C53U U92A G113U | -4.65
A5C A24G U87C | -3.15
A5C U106A | -0.572
A6C A43U A83U C98U C104U | -2.52
A5G A27U A46G | -2.16
A6C C22A U87C G113C | -5.35
A5U C8G C15A A41U G48A C49U G113A U129C | -5.44
A5C C76U | -0.646
A5G G57A G63A | -2.06
C4U C13A A46U G52U C73A | -4.74
A5G G71A | -0.188
A5U G60C C124U | -0.742
A6C C15U G63C | -2.01
C4G G44U U96A | -4.42
A5U C12U | 0.00871
A5G C15U G93U G117U | -1.5
A5U A37U U55A C123A | 0.562
A5C C94U G110A | -2.08
C4U A16G C49U G69A G71C U78G C82U A84U C115A | -6.51
A5G A6G C11U C28U G120U | -2.3
C4U U54A C72G C82A C114A | -3.49
A5U C94U | -1.16

Variant | polymerase ribozyme fitness (log ratio)
C4U A26G A41U C72U U87G A111C | -4
A5C U55G | -0.672
C4U G45U | -1.35
A5C A6U A50U C56U A121U | 1.17
A5U U9G C62A | -0.961
C4U A41C C56A G63A | -4.61
A5C C62U C72G C101G U106G U129C | -5.17
A5U C11G C12U G61U A111C G113A | -4.88
A5C C56U G69U G120A G135C | -1.06
C4U U14A G69A C101U | -5.32
C4U C56G C70A | -3
C4G G110A | -2.16
A5U U9C G45A | -0.0819
A5U C64U | -0.49
C4U A43U U96A | -3.02
A6C C12A | -1.61
A5U A29U | -1.95
A5U G44A A74U C82G U87G | -4.13
A5U C86A | -0.495
C4G C115A | -3.11
A5C C13U C88A C123U | 1.09
C4G C101A | -2.61
A5C G17A C82A | -5.14
A5U G36U | -1.3

Variant | polymerase ribozyme fitness (log ratio)
C4G C124A | 0.669
C4U C12A U59C A66C | -2.92
A5G G60A G117A G135C | -0.941
C4U A6U G45A C80U C101A | -3.66
A6C C11G C15U C102A G120A U133A | -2.14
A5U A121U | 1.1
C4U C101G | -2.06
C4U G61A C89A | -1.4
A5U G39U | -1.13
C4U C72A A91G G117C | -5.33
A6C A29U G52U C53U G63U G120A C123U | -3.79
C4G C86A | -2.95
C4G G48U C70U | -3.27
A5G C94A U129G | -1.49
C4U C20A G120U | -3.69
C4G U9A C56G U112A G117A G120C | -6.24
C4U G42A G45U G47A | -4.19
C4U C49U U78A | -1.36
A5G G93A | -1.17
C4G G39A C40U G93A C102A | -3.57
A5U A83U G120U U129C | -1.35
A6C C8U C11U G69U C104G | -5.29
C4U U9C A41U | -0.927
